Data published in patent US20190270818A1 (Eli Lilly, published 2019).

Tests used:
[1] = target: T1, Human PD-1 (cell membrane expressed) (human, UniProt Q15116 25-288); experiment: cell-based or functional assay
[2] = target: T2, Cynomolgus monkey PD1-extracellular domain (ECD)-His (cynomolgus monkey); experiment: SPR, Biacore 8K, 25° C., mAb captured on protein A, PD1-ECD-His as analyte, n=1
T2 construct: Expressed in CHO cells, purified by IMAC and size exclusion; also called cynomolgus monkey PD-1 ECD; cynomolgus PD1-ECD-his
T2 chain: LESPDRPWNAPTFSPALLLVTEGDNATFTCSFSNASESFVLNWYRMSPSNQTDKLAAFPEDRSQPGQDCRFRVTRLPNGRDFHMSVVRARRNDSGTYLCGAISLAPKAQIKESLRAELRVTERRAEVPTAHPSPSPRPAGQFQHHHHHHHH
Description: (§1) The binding kinetics of an anti-human PD-1 agonist antibody of the invention to human and cynolmolgus monkey PD-1 ECDs may be determined by use of a surface plasmon resonance biosensor such as BIAcore® 2000, BIAcore® 3000, BIAcore® 8K, or a BIAcore® T100 (GE Healthcare, Piscataway, N.J.). Briefly described, a BIAcore® 8K instrument is used to measure the binding kinetics for Antibody 1 to human and cynomolgus monkey PD1-extracellular domain (ECD)-His via surface plasmon resonance (SPR) at 25° C. Samples are dissolved in 1×HBS-EP+ running buffer (Teknova cat. # H8022) and a protein A coupled CMS Series S sensor chip (GE Healthcare Cat #29139131-AA) is utilized to capture mAb. Human and cynomolgus monkey PD1-ECD proteins which contain a C-terminal 8× histidine tag are expressed in CHO cells and purified by nickel charged IMAC followed by size exclusion.
(§2) Binding is evaluated using multiple analytical cycles. Each cycle is performed at 25° C. at a flow rate of 10 μl/minute for mAb capture and 30 μl/minute for ligand association and dissociation. Each cycle consists of the following steps: injection of mAb at 2 μg/ml for 60 s contact time targeting a capture level of approximately 220RUs on flow cell 2, injection of 150 seconds of human or cynomolgus PD1-ECD-his (concentration range of 400 nM to 1.6 nM by four fold serial dilution) followed by 600 second dissociation phase, and regeneration using 10 mM glycine hydrochloride, pH 1.5 over a 30 second contact time. Association (i.e., Kon) and dissociation rates (i.e., Koff) for each cycle are evaluated using standard double referencing and fit to “1:1 (Langmuir) binding” model in the Biacore 8K evaluation in parallel kinetics batch mode. The affinity (KD) is calculated from the binding kinetics according to the relationship KD=Koff/Kon.

[3] = target: T3, Human PD1-extracellular domain (ECD)-His (human, UniProt Q15116 25-167); experiment: as above
T3 construct: Expressed in CHO cells, purified by IMAC and size exclusion; also called human PD-1 ECD; human PD1-ECD-his
Description: as §1, §2

[4] = target: T3, Human PD1-extracellular domain (ECD)-His; experiment: SPR, Biacore T200, 37° C., mAb captured, PD1-ECD-His as analyte, mean ± SD, n=9; 37° C. (n=9)
Description: (§3) In subsequent experiments, Biacore was used to measure the binding kinetics for Antibody 1 to human and cynomolgus monkey PD1-extracellular domain (ECD)-His via surface plasmon resonance (SPR) at 37° C. by BIAcore® T200. For analyses at 37° C., binding is evaluated using multiple analytical cycles. Each cycle is performed at 37° C. at a flow rate of 10 μl/minute for mAb capture and 100 μl/minute for ligand association and dissociation. Each cycle consists of the following steps: injection of mAb at 2.5 μg/ml targeting a capture level of approximately 220RUs on flow cell 2, injection of 180 seconds of human or cynomolgus PD1-ECD-his (concentration range of […] to 1.6 nM by 2-fold serial dilution) followed by 600 second dissociation phase, and regeneration using 10 mM glycine hydrochloride, pH 1.5 over a 30 second contact time. Kon, Koff, and KD are calculated essentially as described above. Affinity data is reported as average and standard deviations determined from triplicate measurements in three independent experiments (mean±SD, n=9).

[5] = target: T4, Cynomolgus monkey PD-1 (cell membrane expressed) (cynomolgus monkey, UniProt Q15116 25-288 (human entry)); experiment: flow cytometry on CHO cells expressing cynomolgus monkey PD-1, GMFI, 4-parameter fit, average
T4 construct: Stably expressed on CHO-K1 cells; no cleavage site is stated; also called cyno PD-1; cynomolgus PD-1
T4 chain: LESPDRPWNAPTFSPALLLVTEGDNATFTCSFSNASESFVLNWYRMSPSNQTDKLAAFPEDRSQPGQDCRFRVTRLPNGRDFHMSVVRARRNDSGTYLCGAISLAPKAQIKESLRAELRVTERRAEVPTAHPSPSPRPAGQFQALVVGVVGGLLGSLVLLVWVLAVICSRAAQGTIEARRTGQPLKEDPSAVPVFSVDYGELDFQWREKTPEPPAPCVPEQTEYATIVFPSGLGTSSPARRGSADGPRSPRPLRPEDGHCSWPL
Excerpt: (§4) The ability of the anti-human PD-1 agonist antibodies disclosed herein to bind to cell surface human or cynomolgus monkey PD-1 can be measured using a flow cytometric assay. Human and cynomolgus monkey PD-1 (i.e., as shown in SEQ ID NOs: 13 and 15, respectively) expressing stable cells are generated by transfecting human or cynomolgus monkey PD-1 plasmid DNA into Chinese Hamster Ovary cells (CHO-kl; Lonza) using an electroporation system (Gene Pulser Xcell; BioRad) according to established protocols. Stable cells are selected from single isolated cells using 500 μg/mL G418 (Thermo Scientific) in culture medium. For flow cytometry, the cells are transferred into a 96-well V-bottom plate at density of 1×10⁵ cells/well. The cells are washed with 1×FACS buffer (Becton Dickinson #554656). Antibody 1, or control human IgG1 (diluted in FACS buffer in a three-fold 12-point titration of the antibodies, starting at 100 micrograms/mL) are added (in 100 microliters) and cells are incubated at 4° C. for 30 minutes.
(§5) After washing twice in FACS buffer, live/dead cell staining is performed using SytoxBlue (Invitrogen, #S34857) per manufacturer's protocol. […] Flow cytometry data is analyzed using FlowJo software. Geometric Mean Fluorescence Intensity (GMFI) values are used to calculate relative EC₅₀ based on 4-parameter logistic regression.

[6] = target: T2, Cynomolgus monkey PD1-extracellular …; experiment: SPR, Biacore T200, 37° C., mAb captured, PD1-ECD-His as analyte, mean ± SD, n=9
Description: as §3

[7] = target: T3, Human PD1-extracellular domain (ECD)-His; experiment: as above
Description: as §3

[8] = target: T1, Human PD-1 (cell membrane expressed); experiment: flow cytometry on CHO cells expressing human PD-1, GMFI, 4-parameter fit, average
Excerpt: as §4, §5

T1 sequence (Q15116 25-288 limits assumed): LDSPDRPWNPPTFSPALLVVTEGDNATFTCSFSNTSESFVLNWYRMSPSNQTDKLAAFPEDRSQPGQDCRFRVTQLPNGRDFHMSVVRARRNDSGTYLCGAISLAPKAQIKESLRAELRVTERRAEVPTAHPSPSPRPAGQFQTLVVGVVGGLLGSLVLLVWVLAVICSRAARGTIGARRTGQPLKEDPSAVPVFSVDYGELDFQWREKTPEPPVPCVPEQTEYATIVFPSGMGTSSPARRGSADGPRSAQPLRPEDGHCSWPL

inhibition of human PD-1 NFAT-luciferase reporter cell activity (IC50) [1]: 0.0752 µg/mL
Kd [2]: 4.7 nM
koff [2]: 0.0011 s⁻¹
kon [2]: 240000 M⁻¹ s⁻¹
Kd [3]: 1 nM
koff [3]: 0.00017 s⁻¹
kon [3]: 170000 M⁻¹ s⁻¹
kon [4]: 307000 M⁻¹ s⁻¹
EC50 [5]: 1.09 µg/mL
Kd [6]: 9.51 nM
koff [6]: 0.00489 s⁻¹
kon [6]: 519000 M⁻¹ s⁻¹
Kd [7]: 2.29 nM
koff [7]: 0.000701 s⁻¹
EC50 [8]: 1.3 µg/mL
B1: Antibody 1 (antibody, human IgG1, kappa, V domains shown)
VH: QVQLVQSGAEVKKPGASVKVSCKVSGYSLSKYDMSWVRQAPGKGLEWMGIIYTSGYTDYAQKFQGRVTMTEDTSTDTAYMELSSLRSEDTAVYYCATGNPYYTNGFNSWGQGTLVTVSS
VL: DIQMTQSPSSLSASVGDRVTITCQASQSPNNLLAWYQQKPGKAPKLLIYGASDLPSGVPSRFSGSGSGTDFTLTISSLQPEDFATYYCQNNYYVGPVSYAFGGGTKVEIKR
notes: Humanized IgG1 with kappa light chain; also called anti-human PD-1 agonist antibody; anti-human PD-1 agonist IgG1 antibody
